Consider one substance from paper doi:10.1101/2022.10.17.512557.

In the assay the target is proteasomal catalytic (20S) particle (rat (endogenous in cultured cortical neurons)) (UniProt P48004). The assay is described as follows: native gel or EMSA. For orientation: In EMSA bound probe runs differently from free probe, usually more slowly.
Sequence of UniProt P48004 (P48004 whole entry, looked up): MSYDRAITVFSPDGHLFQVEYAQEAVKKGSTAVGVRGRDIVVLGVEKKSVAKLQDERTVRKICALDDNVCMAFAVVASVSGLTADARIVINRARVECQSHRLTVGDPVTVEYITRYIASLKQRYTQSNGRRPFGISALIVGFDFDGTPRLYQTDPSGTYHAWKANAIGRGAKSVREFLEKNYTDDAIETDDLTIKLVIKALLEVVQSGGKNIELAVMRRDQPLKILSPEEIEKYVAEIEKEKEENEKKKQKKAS

“proteasomal regulatory (19S) particle (from UniProt P62193 1-440) (complex)” returned a percent of total 20S in the free 20S band (neurite fraction) of 50%.
